Patent US20230140293A1

Key:
Assay in all cases: cell-based or functional assay
[1] = biological target: HIV-1 CH0505TF (CH505 transmitted/founder) Env on Env-pseudotyped virus produced in 293T cells (HIV-1)
[2] = biological target: HIV-1 426c.SM (N276D) Env on Env-pseudotyped virus produced in 293s/GnTI-/- cells (Man5-enrichment) (HIV-1)
[3] = biological target: HIV-1 426c.DM (N460D/N463D) Env on Env-pseudotyped virus produced in 293s/GnTI-/- cells (Man5-enrichment) (HIV-1)
[4] = biological target: CH0505TF.gly4 Env, pseudotyped virus produced in 293S GnTI- cells (HIV-1)
[5] = biological target: CH0505TF.gly3.276 Env, pseudotyped virus produced in 293S GnTI- cells (HIV-1)
[6] = biological target: HIV-1 426c.TM (N276D/N460D/N463D) Env on Env-pseudotyped virus produced in 293s/GnTI-/- cells (Man5-enrichment) (HIV-1)
[7] = biological target: HIV-1 Env 426c.DM (N460D.N463D), Env-pseudotyped virus produced in 293T cells (HIV-1 clade C strain 426c)
[8] = biological target: CH0505TF.gly3.276 Env, Env-pseudotyped virus produced in 293T cells (HIV-1)
[9] = biological target: HIV-1 Env 426c, Env-pseudotyped virus produced in 293S GnTI- cells (Man5-enriched) (HIV-1 clade C strain 426c)
[10] = biological target: HIV-1 Env 426c.TM (N276D.N460D.N463D), Env-pseudotyped virus produced in 293T cells (HIV-1 clade C strain 426c)
[11] = biological target: HIV-1 CH0505TF.gly3.197 Env on Env-pseudotyped virus produced in 293T cells (HIV-1)
[12] = biological target: HIV-1 CH0505TF.gly4 Env on Env-pseudotyped virus produced in 293T cells (HIV-1)
[13] = biological target: HIV-1 CH0505TF.gly4 Env on Env-pseudotyped virus produced in 293S/GnTI-/- cells (Man5-enrichment) (HIV-1)
[14] = biological target: CH0505TF Env, pseudotyped virus produced in 293S GnTI- cells (HIV-1)
[15] = biological target: HIV-1 Env 426c.DM (N460D.N463D), Env-pseudotyped virus produced in 293S GnTI- cells (Man5-enriched) (HIV-1 clade C strain 426c)
[16] = biological target: CH0505TF.gly3.197 Env, Env-pseudotyped virus produced in 293T cells (HIV-1)
[17] = biological target: HIV-1 Env 426c, Env-pseudotyped virus produced in 293T cells (HIV-1 clade C strain 426c)
[18] = biological target: HIV-1 Env 426c.TM (N276D.N460D.N463D), Env-pseudotyped virus produced in 293S GnTI- cells (Man5-enriched) (HIV-1 clade C strain 426c)
[19] = biological target: HIV-1 Env 426c.SM (N276D), Env-pseudotyped virus produced in 293T cells (HIV-1 clade C strain 426c)
[20] = biological target: HIV-1 426c.TM (N276D/N460D/N463D) Env on Env-pseudotyped virus produced in 293T cells (HIV-1)
[21] = biological target: CH0505TF.gly3.461 Env, pseudotyped virus produced in 293S GnTI- cells (HIV-1)
[22] = biological target: CH0505TF.gly3.461 Env, Env-pseudotyped virus produced in 293T cells (HIV-1)
[23] = biological target: CH0505TF.gly3.197 Env, pseudotyped virus produced in 293S GnTI- cells (HIV-1)
[24] = biological target: CH0505TF.G458Y Env, pseudotyped virus produced in 293S GnTI- cells (HIV-1)
[25] = biological target: HIV-1 Env 426c.TM4 (S278R.G471S.N460D.N463D), Env-pseudotyped virus produced in 293S GnTI- cells (Man5-enriched) (HIV-1 clade C strain 426c)
[26] = biological target: CH0505TF.G458Y Env, Env-pseudotyped virus produced in 293T cells (HIV-1)
[27] = biological target: CH0505.w4.3 Env, Env-pseudotyped virus produced in 293T cells (HIV-1)
[28] = biological target: HIV-1 CH0505TF Env on Env-pseudotyped virus produced in 293S/GnTI-/- cells (Man5-enrichment) (HIV-1)
[29] = biological target: HIV-1 Env 426c.TM4 (S278R.G471S.N460D.N463D), Env-pseudotyped virus produced in 293T cells (HIV-1 clade C strain 426c)
[30] = biological target: CH0505TF Env, Env-pseudotyped virus produced in 293T cells (HIV-1)
[31] = biological target: HIV-1 426c.DM (N460D/N463D) Env on Env-pseudotyped virus produced in 293T cells (HIV-1)
[32] = biological target: HIV-1 426c.SM (N276D) Env on Env-pseudotyped virus produced in 293T cells (HIV-1)
[33] = biological target: HIV-1 clade C strain 426c Env on Env-pseudotyped virus produced in 293s/GnTI-/- cells (Man5-enrichment) (HIV-1)
[34] = biological target: HIV-1 CH0505TF.gly3.197 Env on Env-pseudotyped virus produced in 293S/GnTI-/- cells (Man5-enrichment) (HIV-1)
[35] = biological target: CH0505TF.gly4 Env, Env-pseudotyped virus produced in 293T cells (HIV-1)
[36] = biological target: HIV-1 clade C strain 426c Env on Env-pseudotyped virus produced in 293T cells (HIV-1)
[37] = biological target: HIV-1 Env 426c.SM (N276D), Env-pseudotyped virus produced in 293S GnTI- cells (Man5-enriched) (HIV-1 clade C strain 426c)
[38] = biological target: HIV-1 CH0505TF.S365P Env on Env-pseudotyped virus produced in 293T cells (HIV-1)
[39] = biological target: HIV-1 CH0505TF (CH505 transmitted/founder) Env on Env-pseudotyped virus produced in 293T cells (HIV-1); remark: listed apart in the source
[40] = biological target: HIV-1 CH0505TF.N280D Env on Env-pseudotyped virus produced in 293T cells (HIV-1)
[41] = biological target: HIV-1 CH0505TF.G458Y Env on Env-pseudotyped virus produced in 293T cells (HIV-1)
[42] = biological target: CH0505TF G458W Env, pseudotyped virus produced in 293S GnTI- cells (HIV-1)
[43] = biological target: CH0505TF G458Y.N280D Env, pseudotyped virus produced in 293S GnTI- cells (HIV-1)
[44] = biological target: CH0505TF G458S Env, pseudotyped virus produced in 293S GnTI- cells (HIV-1)
[45] = biological target: CH0505TF G458R Env, pseudotyped virus produced in 293S GnTI- cells (HIV-1)
[46] = biological target: CH0505TF G458L Env, pseudotyped virus produced in 293S GnTI- cells (HIV-1)
[47] = biological target: CH0505TF G458F Env, pseudotyped virus produced in 293S GnTI- cells (HIV-1)
[48] = biological target: CH0505TF G458D Env, pseudotyped virus produced in 293S GnTI- cells (HIV-1)
[49] = biological target: CH0505TF G458E Env, pseudotyped virus produced in 293S GnTI- cells (HIV-1)
[50] = biological target: CH0505TF G458C Env, pseudotyped virus produced in 293S GnTI- cells (HIV-1)
[51] = biological target: CH0505TF G458K Env, pseudotyped virus produced in 293S GnTI- cells (HIV-1)
[52] = biological target: CH0505TF.gly4.G458Y Env, pseudotyped virus produced in 293S GnTI- cells (HIV-1)
[53] = biological target: CH0505TF.gly4.G458Y Env, pseudotyped virus produced in 293T cells (HIV-1)
[54] = biological target: CH0505.w4.3 Env, pseudotyped virus produced in 293S GnTI- cells (HIV-1)

VRC01 (antibody)
IC50 (ug/ml) in TZM-bl cells [1]: 0.09 µg/mL
ID50/IC50 in TZM-bl [2]: 0.04 µg/mL
ID50/IC50 in TZM-bl [3]: 0.04 µg/mL
IC50 (µg/ml) in TZM-bl [4]: 0.001 µg/mL
IC50 (µg/ml) in TZM-bl [5]: 0.003 µg/mL
ID50/IC50 in TZM-bl [6]: 0.015 µg/mL
IC50 (µg/ml) in TZM-bl [7]: 0.41 µg/mL
IC50 (µg/ml) in TZM-bl [8]: 0.004 µg/mL
IC50 (µg/ml) in TZM-bl [9]: 0.19 µg/mL
IC50 (µg/ml) in TZM-bl [10]: 0.03 µg/mL
IC50 (ug/ml) in TZM-bl cells [11]: 0.023 µg/mL
IC50 (ug/ml) in TZM-bl cells [12]: 0.002 µg/mL
IC50 (ug/ml) in TZM-bl cells [13]: 0.001 µg/mL
IC50 (µg/ml) in TZM-bl [14]: 0.03 µg/mL
IC50 (µg/ml) in TZM-bl [15]: 0.04 µg/mL
IC50 (µg/ml) in TZM-bl [16]: 0.023 µg/mL
IC50 (µg/ml) in TZM-bl [17]: 2.2 µg/mL
IC50 (µg/ml) in TZM-bl [18]: 0.015 µg/mL
IC50 (µg/ml) in TZM-bl [19]: 0.39 µg/mL
ID50/IC50 in TZM-bl [20]: 0.03 µg/mL
IC50 (µg/ml) in TZM-bl [21]: 0.015 µg/mL
IC50 (µg/ml) in TZM-bl [22]: 1.98 µg/mL
IC50 (µg/ml) in TZM-bl [23]: 0.009 µg/mL
IC50 (µg/ml) in TZM-bl [24]: 0.91 µg/mL
IC50 (µg/ml) in TZM-bl [25]: 0.007 µg/mL
IC50 (µg/ml) in TZM-bl [26]: > 25 µg/mL
IC50 (µg/ml) in TZM-bl [27]: 0.05 µg/mL
IC50 (ug/ml) in TZM-bl cells [28]: 0.03 µg/mL
IC50 (µg/ml) in TZM-bl [29]: 0.002 µg/mL
IC50 (µg/ml) in TZM-bl [30]: 0.1 µg/mL
ID50/IC50 in TZM-bl [31]: 0.41 µg/mL
ID50/IC50 in TZM-bl [32]: 0.39 µg/mL
ID50/IC50 in TZM-bl [33]: 0.19 µg/mL
IC50 (ug/ml) in TZM-bl cells [34]: 0.009 µg/mL
IC50 (µg/ml) in TZM-bl [35]: 0.002 µg/mL
ID50/IC50 in TZM-bl [36]: 2.2 µg/mL
IC50 (µg/ml) in TZM-bl [37]: 0.04 µg/mL
IC50 (µg/ml) in TZM-bl [38]: 0.1 µg/mL
IC50 (µg/ml) in TZM-bl [39]: 0.1 µg/mL
IC50 (µg/ml) in TZM-bl [40]: > 25 µg/mL
IC50 (µg/ml) in TZM-bl [41]: > 25 µg/mL

CH235 UCA2 (antibody)
IC50 (µg/ml) in TZM-bl cells [42]: 1.07 µg/mL
IC50 (µg/ml) in TZM-bl [4]: > 50 µg/mL
IC50 (µg/ml) in TZM-bl cells [43]: > 10 µg/mL
IC50 (µg/ml) in TZM-bl cells [44]: > 10 µg/mL
IC50 (µg/ml) in TZM-bl cells [45]: 0.916 µg/mL
IC50 (µg/ml) in TZM-bl cells [46]: 0.555 µg/mL
IC50 (µg/ml) in TZM-bl [5]: > 50 µg/mL
IC50 (µg/ml) in TZM-bl [8]: > 50 µg/mL
IC50 (µg/ml) in TZM-bl [10]: > 50 µg/mL
IC50 (µg/ml) in TZM-bl cells [47]: 0.746 µg/mL
IC50 (µg/ml) in TZM-bl [14]: > 50 µg/mL
IC50 (µg/ml) in TZM-bl [16]: > 50 µg/mL
IC50 (µg/ml) in TZM-bl [17]: > 50 µg/mL
IC50 (µg/ml) in TZM-bl [18]: > 50 µg/mL
IC50 (µg/ml) in TZM-bl [21]: > 50 µg/mL
IC50 (µg/ml) in TZM-bl [22]: > 50 µg/mL
IC50 (µg/ml) in TZM-bl [23]: > 50 µg/mL
IC50 (µg/ml) in TZM-bl cells [48]: > 10 µg/mL
IC50 (µg/ml) in TZM-bl [24]: 0.16 µg/mL
IC50 (µg/ml) in TZM-bl cells [24]: 0.2 µg/mL
IC50 (µg/ml) in TZM-bl [25]: > 25 µg/mL
IC50 (µg/ml) in TZM-bl cells [49]: > 10 µg/mL
IC50 (µg/ml) in TZM-bl cells [50]: 0.391 µg/mL
IC50 (µg/ml) in TZM-bl [26]: > 25 µg/mL
IC50 (µg/ml) in TZM-bl [27]: > 25 µg/mL
IC50 (µg/ml) in TZM-bl [29]: > 25 µg/mL
IC50 (µg/ml) in TZM-bl cells [51]: > 10 µg/mL
IC50 (µg/ml) in TZM-bl [30]: > 50 µg/mL
IC50 (µg/ml) in TZM-bl cells [52]: > 10 µg/mL
IC50 (µg/ml) in TZM-bl [35]: > 50 µg/mL
IC50 (µg/ml) in TZM-bl cells [53]: > 10 µg/mL
IC50 (µg/ml) in TZM-bl [54]: > 25 µg/mL
